Assay results as given in patent publication US20240261333A1 (published 2024).

T1: CD276, endogenous in A375 melanoma cells (human, UniProt Q5ZPR3 29-534, poly-LacNAc glycosylation added by B3GNT2 (sites not given))
T1 construct: whole, on cells; On fixed A375 cells in flow cytometry; In the co-IP it comes from the lysate of these cells; also called B7H3
T1 sequence (looked up): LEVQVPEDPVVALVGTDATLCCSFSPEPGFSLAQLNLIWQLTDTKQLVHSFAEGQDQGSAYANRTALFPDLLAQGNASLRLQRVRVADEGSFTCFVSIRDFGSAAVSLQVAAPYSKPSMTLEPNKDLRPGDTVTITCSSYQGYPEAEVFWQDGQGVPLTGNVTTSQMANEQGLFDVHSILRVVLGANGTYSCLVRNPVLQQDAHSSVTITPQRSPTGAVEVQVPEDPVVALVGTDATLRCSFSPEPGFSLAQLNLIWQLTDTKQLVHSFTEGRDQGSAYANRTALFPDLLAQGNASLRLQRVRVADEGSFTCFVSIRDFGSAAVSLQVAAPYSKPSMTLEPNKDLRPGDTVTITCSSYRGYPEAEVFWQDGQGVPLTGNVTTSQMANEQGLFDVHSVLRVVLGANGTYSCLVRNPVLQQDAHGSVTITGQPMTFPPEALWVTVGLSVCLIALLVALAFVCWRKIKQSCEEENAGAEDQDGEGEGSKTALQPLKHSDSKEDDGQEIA

T2: POF1B (UniProt Q8WVV4-1 1-595, limits assumed)
T2 construct: also called NP_001294869.1 (+2)
T2 sequence (looked up): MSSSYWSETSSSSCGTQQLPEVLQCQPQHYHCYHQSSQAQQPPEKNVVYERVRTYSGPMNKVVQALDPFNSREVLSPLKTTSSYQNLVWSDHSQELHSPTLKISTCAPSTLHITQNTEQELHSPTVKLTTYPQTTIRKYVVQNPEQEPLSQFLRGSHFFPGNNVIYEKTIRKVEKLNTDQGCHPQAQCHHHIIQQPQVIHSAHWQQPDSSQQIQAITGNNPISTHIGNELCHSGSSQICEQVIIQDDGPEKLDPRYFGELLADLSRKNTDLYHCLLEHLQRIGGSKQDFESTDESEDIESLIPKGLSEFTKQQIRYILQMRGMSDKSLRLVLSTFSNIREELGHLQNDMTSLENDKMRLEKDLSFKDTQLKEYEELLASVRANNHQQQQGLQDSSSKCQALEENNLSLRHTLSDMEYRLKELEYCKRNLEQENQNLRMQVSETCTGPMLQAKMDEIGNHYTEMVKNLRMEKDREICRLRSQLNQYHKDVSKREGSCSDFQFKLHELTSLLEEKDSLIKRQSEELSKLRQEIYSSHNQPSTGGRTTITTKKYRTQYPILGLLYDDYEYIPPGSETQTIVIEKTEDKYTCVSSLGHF

T3: TMEM59 (UniProt Q9BXS4 36-323, limits assumed)
T3 construct: also called NP_001291972.1
T3 sequence (looked up): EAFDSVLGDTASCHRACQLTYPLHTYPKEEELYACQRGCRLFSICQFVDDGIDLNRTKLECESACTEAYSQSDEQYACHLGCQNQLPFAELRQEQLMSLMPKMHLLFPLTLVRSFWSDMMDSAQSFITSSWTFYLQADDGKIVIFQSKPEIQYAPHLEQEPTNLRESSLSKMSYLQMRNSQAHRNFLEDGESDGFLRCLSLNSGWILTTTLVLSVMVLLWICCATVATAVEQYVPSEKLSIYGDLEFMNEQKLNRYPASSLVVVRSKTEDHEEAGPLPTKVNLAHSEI

T4: EMD (UniProt P50402 1-254)
T4 construct: also called NP_000108.1
T4 sequence (looked up): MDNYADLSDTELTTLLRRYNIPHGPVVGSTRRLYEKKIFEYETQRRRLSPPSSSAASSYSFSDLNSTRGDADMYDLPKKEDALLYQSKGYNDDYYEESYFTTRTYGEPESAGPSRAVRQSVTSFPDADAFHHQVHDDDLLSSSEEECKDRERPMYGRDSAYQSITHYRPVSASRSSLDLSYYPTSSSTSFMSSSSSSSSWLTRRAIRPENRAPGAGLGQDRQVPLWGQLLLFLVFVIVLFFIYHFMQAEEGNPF

T5: CDSN (UniProt Q15517 33-529, limits assumed)
T5 construct: also called NP_001255.4
T5 sequence (looked up): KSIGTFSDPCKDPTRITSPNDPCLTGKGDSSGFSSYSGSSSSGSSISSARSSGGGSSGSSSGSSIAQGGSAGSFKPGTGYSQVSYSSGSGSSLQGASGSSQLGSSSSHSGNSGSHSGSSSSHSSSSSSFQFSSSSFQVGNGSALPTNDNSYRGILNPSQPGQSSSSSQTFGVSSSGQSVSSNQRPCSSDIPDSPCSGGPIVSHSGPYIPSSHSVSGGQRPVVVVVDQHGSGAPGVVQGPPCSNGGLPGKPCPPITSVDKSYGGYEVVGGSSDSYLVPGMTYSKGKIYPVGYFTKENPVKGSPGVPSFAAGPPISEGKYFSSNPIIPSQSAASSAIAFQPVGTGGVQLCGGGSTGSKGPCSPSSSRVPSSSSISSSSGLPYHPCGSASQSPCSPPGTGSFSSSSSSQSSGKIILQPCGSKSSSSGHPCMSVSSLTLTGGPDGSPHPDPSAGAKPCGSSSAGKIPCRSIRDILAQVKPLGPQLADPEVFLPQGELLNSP

T6: ARG1 (UniProt P05089 1-322)
T6 construct: also called NP_000036.2 (+1)
T6 sequence (looked up): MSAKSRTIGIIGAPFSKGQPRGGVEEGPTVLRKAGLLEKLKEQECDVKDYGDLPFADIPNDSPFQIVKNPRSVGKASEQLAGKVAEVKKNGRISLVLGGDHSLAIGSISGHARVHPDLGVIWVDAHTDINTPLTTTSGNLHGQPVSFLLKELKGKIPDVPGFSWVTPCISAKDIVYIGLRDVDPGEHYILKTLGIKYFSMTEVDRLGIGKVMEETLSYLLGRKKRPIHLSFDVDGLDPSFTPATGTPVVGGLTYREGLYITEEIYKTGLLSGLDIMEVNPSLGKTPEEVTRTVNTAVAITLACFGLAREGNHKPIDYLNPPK


Key:
[1] = target: T1, CD276, endogenous in A375 melanoma cells; assay: flow cytometry of TREML2 Fc chimera on fixed A375 cells with CD276 knocked down by CRISPR
Description: Per condition, 5×10⁵ cells were pelleted at 200×g for 5 min and washed once with PBS. Cell were fixed in 4% Formaldehyde in PBS at 4° C. for 10 mins. […] Cells were incubated at 4° C. for 1 h. […] Cells stained with Tomato Lectin were not incubated with additional secondary antibodies. Cells were incubated at 4 °C for 30 mins. Cells were washed twice with PBS. For each sample, 10,000 cells were analyzed on a CytoFLEX Flow Cytometer (Beckman Coulter) and quantified with FlowJo (FlowJo). For each experiment, median fluorescence values for 3 biological replicates were compared to determine statistical significance.

RPS2 = RPS2 (UniProt P15880 2-293); assay: co-IP, anti-FLAG, C-FLAG B3GNT2 cell lysate, mass spectrometry
Description: (§1) Cells were plated in 10-cm cell culture dishes and grown to 60-80% confluency. For each condition, two biological replicates were harvested for co-IP. Cells were washed with PBS and 4 mL of lysis buffer (20 mM HEPES, 1% Triton X-100, 150 mM NaCl, 1 mM EDTA, and 10% glycerol) containing protease inhibitor cocktail was added. Cells were scraped and lysate was incubated at 4° C. under rotary agitation for 1 h. Lysate was centrifuged at 14,000×g for 10 min at 4° C. Supernatant was transferred to a new tube and an aliquot was taken as the input. […] For Western blots, 10 μg/mL Chicken Anti-FLAG (Aves labs ET-DY100) and IgY control (R&D Systems AB-101-C) antibodies were biotinylated (Thermo Fisher Scientific 90407) and added to the respective conditions. Lysates with antibodies were incubated at 4° C. under rotary agitation overnight. For each mL of lysate, 50 μL of Pierce Protein A/G Magnetic Beads (Mass spectrometry; Thermo Fisher Scientific 88803) or Pierce Streptavidin Magnetic Beads (Western blot; Thermo Fisher Scientific 88817) was washed twice with lysis buffer. Lysates with antibodies were added to the beads and incubated at 4° C. under rotary agitation for 4 h. Beads were washed with lysis buffer 3 times and resuspended in lysis buffer for storage.
(§2) Magnetic beads were resuspended in 100 mM Tris pH 7.8, reduced, alkylated and digested with trypsin at 37° ° C. overnight. This solution was subjected to solid phase extraction to concentrate the peptides and remove unwanted reagents followed by injection onto a Shimadzu HPLC with fraction collector. Eight fractions were collected and after concentration were injected on a Waters NanoAcquity HPLC equipped with a self-packed Aeris 3 μm C18 analytical column 0.075 mm by 20 cm, (Phenomenex). Peptides were eluted using standard reverse-phase gradients. The effluent from the column was analyzed using a Thermo Orbitrap Elite mass spectrometer (nanospray configuration) operated in a data dependent manner for 54 minutes. The resulting fragmentation spectra were correlated against the known database using Proteome Discover 1.4 (Thermo Fisher Scientific).

POF1B = target: T2, POF1B; assay: as above
Description: as §1, §2

TMEM59 = target: T3, TMEM59; assay: as above
Description: as §1, §2

EMD = target: T4, EMD; assay: as above
Description: as §1, §2

DEFA3 = target: T7, DEFA3 (UniProt P59666 65-94, limits assumed); assay: as above
T7 construct: also called NP_005208.1 (+1)
T7 sequence (P59666 65-94 limits assumed): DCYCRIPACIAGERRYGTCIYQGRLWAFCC
Description: as §1, §2

CDSN = target: T5, CDSN; assay: as above
Description: as §1, §2

RPS18 = RPS18 (UniProt P62269 2-152); assay: as above
Description: as §1, §2

RPS13 = RPS13 (UniProt P62277 2-151); assay: as above
Description: as §1, §2

ARG1 = target: T6, ARG1; assay: as above
Description: as §1, §2

CFL1 = target: T8, CFL1 (UniProt P23528 2-166); assay: as above
T8 construct: also called NP_005498.1
T8 sequence (P23528 2-166 limits assumed): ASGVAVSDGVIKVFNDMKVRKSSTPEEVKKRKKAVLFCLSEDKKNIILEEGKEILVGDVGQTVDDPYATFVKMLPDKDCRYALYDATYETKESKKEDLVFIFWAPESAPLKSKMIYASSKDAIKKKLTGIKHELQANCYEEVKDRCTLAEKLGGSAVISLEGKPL
Description: as §1, §2

RPS23 = RPS23 (UniProt P62266 2-143); assay: as above
Description: as §1, §2

| Binder | binding result [1] | co-IP mass spectrometry count (RPS2) | co-IP mass spectrometry count (POF1B) | co-IP mass spectrometry count (TMEM59) | co-IP mass spectrometry count (EMD) | co-IP mass spectrometry count (DEFA3) | co-IP mass spectrometry count (CDSN) | co-IP mass spectrometry count (RPS18) | co-IP mass spectrometry count (RPS13) | co-IP mass spectrometry count (ARG1) | co-IP mass spectrometry count (CFL1) | co-IP mass spectrometry count (RPS23) |
| --- | --- | --- | --- | --- | --- | --- | --- | --- | --- | --- | --- | --- |
| TREML2 recombinant Fc chimera protein (R&D Systems 3259-TL-050) (Fc fusion, UniProt Q5T2D2 19-268, looked up, Bought reagent; also called TLT2; Fc part of the bought chimera not given) GPSADSVYTKVRLLEGETLSVQCSYKGYKNRVEGKVWCKIRKKKCEPGFARVWVKGPRYLLQDDAQAKVVNITMVALKLQDSGRYWCMRNTSGILYPLMGFQLDVSPAPQTERNIPFTHLDNILKSGTVTTGQAPTSGPDAPFTTGVMVFTPGLITLPRLLASTRPASKTGYSFTATSTTSQGPRRTMGSQTVTASPSNARDSSAGPESISTKSGDLSTRSPTTGLCLTSRSLLNRLPSMPSIRHQDVYS | no binding (tested: 25 µg/mL) |  |  |  |  |  |  |  |  |  |  |  |
| C-terminal FLAG tagged B3GNT2 (enzyme, human, UniProt Q9NY97 1-397, looked up, Bait of the co-IP; pulled down with mouse anti-FLAG from cell lysate; also called C-FLAG B3GNT2; C-term flag; not shown: FLAG tag at the C-terminus) MSVGRRRIKLLGILMMANVFIYFIMEVSKSSSQEKNGKGEVIIPKEKFWKISTPPEAYWNREQEKLNRQYNPILSMLTNQTGEAGRLSNISHLNYCEPDLRVTSVVTGFNNLPDRFKDFLLYLRCRNYSLLIDQPDKCAKKPFLLLAIKSLTPHFARRQAIRESWGQESNAGNQTVVRVFLLGQTPPEDNHPDLSDMLKFESEKHQDILMWNYRDTFFNLSLKEVLFLRWVSTSCPDTEFVFKGDDDVFVNTHHILNYLNSLSKTKAKDLFIGDVIHNAGPHRDKKLKYYIPEVVYSGLYPPYAGGGGFLYSGHLALRLYHITDQVHLYPIDDVYTGMCLQKLGLVPEKHKGFRTFDIEEKNKNNICSYVDLMLVHSRKPQEMIDIWSQLQSAHLKC |  | 24 | 0 | 0 | 2 | 8 | 0 | 18 | 4 | 6 | 6 | 16 |
